# B1: DENV-144 (antibody, V domains shown)
# VH: QVQLQESGPGLVKPSETLSLTCTVSGASISSYSWSWIRQPAGRGLEWLGRIYPSGNTNYSPSLKSRLTMSLDTSKNQFSMKLTSVSAADTAVYYCARDREQWPLYYGMDVWGQGTLVTVSS
# VL: EIVLTQSPAILSLSPGDRATLSCRASQSVFTYLAWYQHKPGQAPRLLIYDASNRASGIPARFSGSGSGTDFTLTISSLEPEDFAVYYCQQRTKWPLAFGGGTKVEIK
# B2: DENV-419 (antibody, V domains shown)
# VH: EMQLQESGPRLVKPSQTLSLTCTVSGGSTSSGGYYWSWFRQYPEKGLEWIGYIFSSVTTYYNPPLKSRVTISVDTSKNQFSLKLSSVTAADTAVYYCARSLHYYQSSGFLYWGRGIPVTVSA
# VL: EIVLTQSPATLSLSPGDRATLSCRASQTVGDSLAWYQQKPGQAPRLLIYDVSNRATGIPARFSGSGSGTDFTLTISSLEPEDFAVYYCQQRASFVTFGRGTKVDIK
# What was measured:
# [1] = molecular target: DENV1 envelope (E) glycoprotein, strain Nauru/West Pac/1974 (Dengue virus serotype 1, UniProt P17763); test: cell-based or functional assay
# [2] = molecular target: DENV3 envelope (E) glycoprotein, strain Phillippines/16562/1964 (Dengue virus serotype 3); test: live-virus capture ELISA
# [3] = molecular target: DENV3 envelope (E) glycoprotein, wildtype DENV3 (strain not named at the place) (Dengue virus serotype 3)
binder,measurement,setting,value
B1,"FRNT EC50, Vero-81 (WUSTL)",[1],0.329 µg/mL
B2,EC50,[2],0.0444 µg/mL
same,"FRNT EC50, Vero-81",[3],< 0.035 µg/mL

# From patent publication US20230078330A1, “HUMAN ANTI-DENGUE ANTIBODIES AND METHODS OF USE THEREFOR” (published 2023)
